Reference: patent publication US11597752B2, “Peptides and combination of peptides and scaffolds thereof for use in immunotherapy against colorectal carcinoma (CRC) and other cancers” (priority 2015, dated 2023)

biological target: HLA-A*02:01 (Homo sapiens, UniProt P04439, D140Y/D185E/D98H/E176V/E277Q/G131W/G231S/I119V/I121R/I166T/I218V/L300P/L318F/N151K/N90K/P208A/P217A/Q86G/Q94H/R138H/R169H/T345S); assay: MHC binding assay (UV-ligand exchange, beta2m ELISA, peptide exchange yield); conditions: binding to HLA-A*02:01, β2m ELISA
Source text: Candidate peptides for T cell based therapies according to the present invention were further tested for their MHC binding capacity (affinity). The individual peptide-MHC complexes were produced by UV-ligand exchange, where a UV-sensitive peptide is cleaved upon UV-irradiation, and exchanged with the peptide of interest as analyzed. Only peptide candidates that can effectively bind and stabilize the peptide-receptive MHC molecules prevent dissociation of the MHC complexes. To determine the yield of the exchange reaction, an ELISA was performed based on the detection of the light chain (β2m) of stabilized MHC complexes. The assay was performed as generally described in Rodenko et al. (Rodenko et al., 2006).
96 well MAXISorp plates (NUNC) were coated over night with 2 ug/ml streptavidin in PBS at room temperature, washed 4× and blocked for 1 h at 37° C. in 2% BSA containing blocking buffer. Refolded HLA-A*02:01/MLA-001 monomers served as standards, covering the range of 15-500 ng/ml. Peptide-MHC monomers of the UV-exchange reaction were diluted 100 fold in blocking buffer. Samples were incubated for 1 h at 37° C., washed four times, incubated with 2 ug/ml HRP conjugated anti-β2m for 1 h at 37° C., washed again and detected with TMB solution that is stopped with […]. Absorption was measured at 450 nm. Candidate peptides that show a high exchange yield (preferably higher than 50%, most preferred higher than 75%) are generally preferred for a generation and production of antibodies or fragments thereof, and/or T cell receptors or fragments thereof, as they show sufficient avidity to the MHC molecules and prevent dissociation of the MHC complexes.

Substance	Peptide exchange (MHC class I binding score, peptide exchange yield)
36 (GLLESPSIFNFTA; listed as Homo sapiens) [compound 36]	“+++” (≥50 = +++)
40 (ALSNVIHKV; listed as Homo sapiens) [compound 40]	“++” (≥20% = ++)
41 (ILDDSFKLL; listed as Homo sapiens) [compound 41]	“++” (≥20% = ++)
43 (TLDAAQPRV; listed as Homo sapiens) [compound 43]	“++” (≥20% = ++)
44 (SLESKLTSV; listed as Homo sapiens) [compound 44]	“+++” (≥50 = +++)
45 (ALAELLHGA; listed as Homo sapiens) [compound 45]	“+++” (≥50 = +++)
46 (GLDDRYSLV; listed as Homo sapiens) [compound 46]	“+++” (≥50 = +++)
48 (FLDASDPAL; listed as Homo sapiens) [compound 48]	“++” (≥20% = ++)
50 (TLMAEMHVV; listed as Homo sapiens) [compound 50]	“+++” (≥50 = +++)
51 (QVWEIQHTV; listed as Homo sapiens) [compound 51]	“++” (≥20% = ++)
52 (ALDSSNSMQTI; listed as Homo sapiens) [compound 52]	“++” (≥20% = ++)
53 (FLLGSEIKL; listed as Homo sapiens) [compound 53]	“+++” (≥50 = +++)
54 (ALLNGEYLLAA; listed as Homo sapiens) [compound 54]	“+++” (≥50 = +++)
56 (VLFTDEGVPKFL; listed as Homo sapiens) [compound 56]	“++” (≥20% = ++)
57 (NLLEKENYL; listed as Homo sapiens) [compound 57]	“+++” (≥50 = +++)
58 (AMADKMDMSL; listed as Homo sapiens) [compound 58]	“++” (≥20% = ++)
60 (VLDEDEPRFL; listed as Homo sapiens) [compound 60]	“++” (≥20% = ++)
61 (KLLKLFQGV; listed as Homo sapiens) [compound 61]	“+++” (≥50 = +++)
62 (YLAPENGYL; listed as Homo sapiens) [compound 62]	“++” (≥20% = ++)

Substance	Peptide exchange (MHC class I binding score, peptide exchange yield)
63 (KLFSILSTV; listed as Homo sapiens) [compound 63]	“++” (≥20% = ++)
66 (GLDDGPDFL; listed as Homo sapiens) [compound 66]	“++” (≥20% = ++)
67 (SLNDLEKDVMLL; listed as Homo sapiens) [compound 67]	“+++” (≥50 = +++)
68 (SILQFVHMV; listed as Homo sapiens) [compound 68]	“+++” (≥50 = +++)
69 (GMLNEAEGKAIKL; listed as Homo sapiens) [compound 69]	“++” (≥20% = ++)
70 (MISELEVRL; listed as Homo sapiens) [compound 70]	“+++” (≥50 = +++)
71 (RLWTEIPTAI; listed as Homo sapiens) [compound 71]	“+++” (≥50 = +++)
72 (YLLDYPNNLL; listed as Homo sapiens) [compound 72]	“+++” (≥50 = +++)
73 (YLFDIAVSM; listed as Homo sapiens) [compound 73]	“+++” (≥50 = +++)
74 (YLMGFLHAV; listed as Homo sapiens) [compound 74]	“+++” (≥50 = +++)
75 (EMIENIQSV; listed as Homo sapiens) [compound 75]	“++” (≥20% = ++)
76 (YLIGEKQHYL; listed as Homo sapiens) [compound 76]	“+++” (≥50 = +++)
77 (SLLKRDFGA; listed as Homo sapiens) [compound 77]	“++” (≥20% = ++)
78 (ALDPELLLL; listed as Homo sapiens) [compound 78]	“++” (≥20% = ++)
79 (SLAADQLLKL; listed as Homo sapiens) [compound 79]	“++” (≥20% = ++)
80 (QVDEVVDIMRV; listed as Homo sapiens) [compound 80]	“++” (≥20% = ++)
81 (ALLSQQTHL; listed as Homo sapiens) [compound 81]	“+++” (≥50 = +++)
82 (QLYEEPDTKL; listed as Homo sapiens) [compound 82]	“++” (≥20% = ++)
83 (LTIEDGIFEV; listed as Homo sapiens) [compound 83]	“+++” (≥50 = +++)

Substance	Peptide exchange (MHC class I binding score, peptide exchange yield)
84 (SMVEDITGLRL; listed as Homo sapiens) [compound 84]	“+++” (≥50 = +++)
85 (ILHDINSDGVL; listed as Homo sapiens) [compound 85]	“++” (≥20% = ++)
86 (KVFPGKISV; listed as Homo sapiens) [compound 86]	“++” (≥20% = ++)
87 (LLFDAPDLRL; listed as Homo sapiens) [compound 87]	“+++” (≥50 = +++)
88 (KLDIKVETV; listed as Homo sapiens) [compound 88]	“++++” (≥75% = ++++)
89 (SLIEYEFRV; listed as Homo sapiens) [compound 89]	“+++” (≥50 = +++)
90 (GLLKPGLNVVL; listed as Homo sapiens) [compound 90]	“+++” (≥50 = +++)
91 (TVDVATPSV; listed as Homo sapiens) [compound 91]	“+++” (≥50 = +++)
92 (WIDDTSAFV; listed as Homo sapiens) [compound 92]	“+++” (≥50 = +++)
93 (SLQELRLLL; listed as Homo sapiens) [compound 93]	“++++” (≥75% = ++++)
94 (KSMDIVLTV; listed as Homo sapiens) [compound 94]	“+++” (≥50 = +++)
95 (AILDAHIEV; listed as Homo sapiens) [compound 95]	“++++” (≥75% = ++++)
96 (KLYSRLVYV; listed as Homo sapiens) [compound 96]	“++” (≥20% = ++)
97 (ALWWGVVTV; listed as Homo sapiens) [compound 97]	“++” (≥20% = ++)
98 (AMNGKSFSV; listed as Homo sapiens) [compound 98]	“++” (≥20% = ++)
99 (KLLEVDLDTV; listed as Homo sapiens) [compound 99]	“+++” (≥50 = +++)
100 (SLDDFLATA; listed as Homo sapiens) [compound 100]	“+++” (≥50 = +++)
101 (GLSEGHTFQV; listed as Homo sapiens) [compound 101]	“+++” (≥50 = +++)
102 (KILVSLIEV; listed as Homo sapiens) [compound 102]	“+++” (≥50 = +++)
